Laboratory results reported in the supplement of paper PMC7877785.
± gives the uncertainty stated by the source.

Assay: self-splicing fitness, log relative to wild type (ln ratio); higher = more splicing; Tetrahymena group I intron in knt gene, E. coli kanamycin selection, DiMSum; sequences stand for … in CUCUCU…GGAGGGAAAAGUUAUCAGGCAUGCACCUGGUAGCUAGUCUUUAAACCAAUAGAUUGCAUCGGUUUAAAAGGCAAGACCGUCAAAUUGCGGGAAAGGGGUCAACAGCCGUUCAGUACCAAGUCUCAGGGGAAACUUUGAGAUGGCCUUGCAAAGGGUAUGGUAAUAAGCUGACGGACAUGGUCCUAACCACGCAGCCAAGUCCUAAGUCAACAGAUCUUCUGUUGAUAUGGAUGCAGUUCACAGACUAAAUGUCGGUCGGGGAAGAUGUAUUCUUCUCAUAAGAUAUAGUCGGACCUCUCCUUAAUGGGAGCUAGCGGAUGAAGUGAUGCAACACUGGAGCCGCUGGGAACUAAUUUGUAUGCGAAAGUAUAUUGAUUAGUUUUGGAGUACUCGUGGUCG
Outline: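 Pooled colonies went to amplicon sequencing on an Illumina HiSeq 2500 after six replicate transformations. The plates were LB agar with 100 μg/mL carbenicillin, 50 μM IPTG and 0.2% rhamnose, with or without 25 μg/mL kanamycin, incubated overnight at 37°C or 30°C. The E. coli BL21(DE3) library had all eight P1ex-region intron nucleotides randomised, the intron placed in the knt kanamycin-resistance gene on pET-22b(+). DiMSum fitness is the error-weighted combination of replicate fold changes, kanamycin against none, normalised to wild type.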

## AGCAAGCAAUAUUACGGAUG
30 °C
  self-splicing fitness (ln): -2.27 ± 0.14
37 °C
  self-splicing fitness (ln): -2.17 ± 0.17

## UUGAAGCAAUAUUACGUGAU
30 °C
  self-splicing fitness (ln): -2.29 ± 0.11
37 °C
  self-splicing fitness (ln): -1.3 ± 0.16

## ACACAGCAAUAUUACGUACA
30 °C
  self-splicing fitness (ln): -1.05 ± 0.059
37 °C
  self-splicing fitness (ln): -0.954 ± 0.068

## AGGCAGCAAUAUUACGCAAU
30 °C
  self-splicing fitness (ln): -2.26 ± 0.14
37 °C
  self-splicing fitness (ln): -1.76 ± 0.094

## AGGAAGCAAUAUUACGCAGU
30 °C
  self-splicing fitness (ln): -3.41 ± 0.15
37 °C
  self-splicing fitness (ln): -0.746 ± 0.095

## AAAGAGCAAUAUUACGCUUG
30 °C
  self-splicing fitness (ln): -1.67 ± 0.13
37 °C
  self-splicing fitness (ln): -1.19 ± 0.18

## CAGUAGCAAUAUUACGACGC
30 °C
  self-splicing fitness (ln): -3.07 ± 0.38
37 °C
  self-splicing fitness (ln): -0.25 ± 0.25

## GAUCAGCAAUAUUACGUAAC
30 °C
  self-splicing fitness (ln): -0.807 ± 0.093
37 °C
  self-splicing fitness (ln): -0.643 ± 0.13

## UGAAAGCAAUAUUACGGUGU
30 °C
  self-splicing fitness (ln): -3.55 ± 0.18
37 °C
  self-splicing fitness (ln): -2.02 ± 0.22

## GCUAAGCAAUAUUACGAAAC
30 °C
  self-splicing fitness (ln): -1.17 ± 0.14
37 °C
  self-splicing fitness (ln): -0.452 ± 0.2

## CCUAAGCAAUAUUACGUUUU
30 °C
  self-splicing fitness (ln): -3.89 ± 0.18
37 °C
  self-splicing fitness (ln): -1.3 ± 0.13

## GUGCAGCAAUAUUACGAGAC
30 °C
  self-splicing fitness (ln): -2.12 ± 0.13
37 °C
  self-splicing fitness (ln): -1.53 ± 0.12

## GGACAGCAAUAUUACGUAAC
30 °C
  self-splicing fitness (ln): -0.0173 ± 0.1
37 °C
  self-splicing fitness (ln): -0.0671 ± 0.14

## AUGCAGCAAUAUUACGUCGG
30 °C
  self-splicing fitness (ln): -2.43 ± 0.22
37 °C
  self-splicing fitness (ln): -1.91 ± 0.26

## CGGGAGCAAUAUUACGUUGU
30 °C
  self-splicing fitness (ln): -4.45 ± 0.29
37 °C
  self-splicing fitness (ln): -2.65 ± 0.26

## CGGGAGCAAUAUUACGGGAG
30 °C
  self-splicing fitness (ln): -2.76 ± 0.22
37 °C
  self-splicing fitness (ln): -2.44 ± 0.3

## GCUAAGCAAUAUUACGCCGA
30 °C
  self-splicing fitness (ln): -2.09 ± 0.33
37 °C
  self-splicing fitness (ln): -1.28 ± 0.2

## UGUCAGCAAUAUUACGUUUU
30 °C
  self-splicing fitness (ln): -3.83 ± 0.2
37 °C
  self-splicing fitness (ln): -2.23 ± 0.14

## CCAAAGCAAUAUUACGGGCU
30 °C
  self-splicing fitness (ln): -2.45 ± 0.13
37 °C
  self-splicing fitness (ln): -3.3 ± 0.23

## CGAGAGCAAUAUUACGAGCG
30 °C
  self-splicing fitness (ln): -0.966 ± 0.11
37 °C
  self-splicing fitness (ln): -1.72 ± 0.18

## GGUAAGCAAUAUUACGUUCU
30 °C
  self-splicing fitness (ln): -1.44 ± 0.12
37 °C
  self-splicing fitness (ln): -0.359 ± 0.12

## GCCAAGCAAUAUUACGAAUC
30 °C
  self-splicing fitness (ln): -1.25 ± 0.078
37 °C
  self-splicing fitness (ln): -1.5 ± 0.095

## GUGCAGCAAUAUUACGUGAG
30 °C
  self-splicing fitness (ln): -0.173 ± 0.054
37 °C
  self-splicing fitness (ln): -0.117 ± 0.084

## GAGAAGCAAUAUUACGUCAU
30 °C
  self-splicing fitness (ln): -2.57 ± 0.097
37 °C
  self-splicing fitness (ln): -0.577 ± 0.089

## AGUGAGCAAUAUUACGGGGU
30 °C
  self-splicing fitness (ln): -4.06 ± 0.25
37 °C
  self-splicing fitness (ln): -2.67 ± 0.21

## UUUUAGCAAUAUUACGAGCA
30 °C
  self-splicing fitness (ln): -1.72 ± 0.15
37 °C
  self-splicing fitness (ln): -0.97 ± 0.16

## UUGAAGCAAUAUUACGCCCG
30 °C
  self-splicing fitness (ln): 0.0378 ± 0.14
37 °C
  self-splicing fitness (ln): 0.251 ± 0.21

## AUUCAGCAAUAUUACGAAUG
30 °C
  self-splicing fitness (ln): -1.54 ± 0.11
37 °C
  self-splicing fitness (ln): -0.673 ± 0.13

## AUCCAGCAAUAUUACGCAGG
30 °C
  self-splicing fitness (ln): -2.84 ± 0.3
37 °C
  self-splicing fitness (ln): -2.7 ± 0.37

## UGCGAGCAAUAUUACGAGUA
30 °C
  self-splicing fitness (ln): -0.846 ± 0.14
37 °C
  self-splicing fitness (ln): -1.84 ± 0.2

## ACUUAGCAAUAUUACGCACA
30 °C
  self-splicing fitness (ln): -1.26 ± 0.12
37 °C
  self-splicing fitness (ln): -1.02 ± 0.12

## UAUAAGCAAUAUUACGUGUU
30 °C
  self-splicing fitness (ln): -3.24 ± 0.17
37 °C
  self-splicing fitness (ln): -2.22 ± 0.22

## UAUGAGCAAUAUUACGCAAG
30 °C
  self-splicing fitness (ln): -2.66 ± 0.24
37 °C
  self-splicing fitness (ln): -1.36 ± 0.23

## GUGUAGCAAUAUUACGGACA
30 °C
  self-splicing fitness (ln): -0.685 ± 0.15
37 °C
  self-splicing fitness (ln): -1.11 ± 0.18

## GAAAAGCAAUAUUACGUACA
30 °C
  self-splicing fitness (ln): -0.498 ± 0.066
37 °C
  self-splicing fitness (ln): -0.0587 ± 0.082

## ACAGAGCAAUAUUACGCAGC
37 °C
  self-splicing fitness (ln): -2.25 ± 0.33

## AUCGAGCAAUAUUACGAAAC
30 °C
  self-splicing fitness (ln): -2.27 ± 0.31
